Data on nine substances can be found in US7491523B2, “Voltage-dependent calcium channel beta subunit functional core” (priority 2004, dated 2009).

The test system of one assay is β. The conditions noted are these: AID with β; cited from earlier work.
Assay [1] addresses T1, fluorescein-labeled AID peptide (AID motif of the CaV1.1 I-II linker) (Oryctolagus cuniculus, UniProt P07293, M367N).
T1 construct: fluorescein label (chemical, on the amino-terminus); made in house; host or cells: synthetic peptide, HPLC-purified
Put plainly: AID peptide binding assay (fluorescence polarization): VDCC β constructs titrated against labeled AID peptide. The conditions noted are these: identical protein amounts, after incubation with TEV protease, FIG. 6c. The text has this:
Fluorescence polarization was used to determine the equilibrium dissociation constant (KD) for the interaction between a fluorescein-labeled AID peptide, purified and various VDCC β constructs. The synthetic peptide was purified by HPLC reverse chromatography using a C18 column (Vydac) with a shallow acetonitrile gradient 20-80% (both solvents were supplemented with 0.05% trifluoracetic acid). Its sequence is derived from the AID motif of: the CaV1.1 I-II linker and is as follows: fluorescein-[…]-COOH (SEQ ID NO: 14). A mutant peptide, fluorescein-[…]-COOH (SEQ ID NO: 15) was prepared, in addition. […] Polarization measurements were taken with an ISS K2 fluorescence spectrophotometer at excitation and emission wavelengths of 492 and 520 nm, respectively, at 20° C., maintained by a temperature-controlled water bath. […] Binding isotherms for the various samples were measured three independent times. Binding data were analyzed in SigmaPlot (SPSS) by nonlinear regression used to fit a binding function as defined by the following equation: […]
where X is the concentration of free ligand, ΔP is the change in fluorescence polarization of the fluorophore (baseline polarization of the labeled peptide alone was subtracted), Bmax is the maximum change in polarization upon saturation and KD is the concentration of ligand required to reach half maximal binding. […]

The target of another assay is T2, Cav1.2 (α1C) (Homo sapiens, UniProt Q13936).
T2 construct: expressed in transfected cells; host or cells: Xenopus laevis oocytes, mRNA injection
Briefly: Two-electrode voltage clamp of Xenopus oocytes expressing Cav1.2, microinjected with β proteins. In kind it is cell-based, Xenopus laevis. The conditions noted are these: for Current amplitude, I at 20 mV / Current amplitude, I at 30 mV: Xenopus oocytes, α1.2, mean ± SEM; for Steady-state activation, V1/2 (membrane potential for half-maximal activation) / Steady-state activation, k (slope factor): from I-V curve, mean ± SEM; for current amplitude increase and change of steady-state activation: Cav1.2 currents, protein injection into oocytes. The procedure:
Preparation of Xenopus laevis oocytes, injection of mRNA of VDCC subunits, and electrophysiological recording and analysis were performed, as described (Kang, M. G., Chen, C. C., Felix, R., Letts, V. A., Frankel, W. N., Mori, Y., and Campbell, K. P. (2001) J Biol Chem 276, 32917-32924). The negative control group were oocytes expressing CaV1.2 (α1C) subunit only by mRNA injection followed by injection of protein buffer (PB). The positive control group were oocytes expressing α1C and β3 subunits by mRNA injection, followed by injection of protein buffer (PB). The oocytes of experimental groups were injected with α1C mRNA followed by injection of VDCC β proteins, two days after the mRNA injection. Injection of protein ([…] of protein per oocyte) was performed similarly as mRNA injection. Oocytes injected with VDCC β proteins were incubated one more day and the expressed calcium channel currents were recorded using the two-electrode voltage-clamp technique.
In order to determine that the bacterially expressed, recombinant proteins were physiologically active, two-electrode, two-voltage-clamp measurements of Xenopus oocytes expressing α1 and microinjected with our protein samples was performed. […] The current amplitude increase and change of steady-state activation are statistically significant in all experimental groups except a group injected with β2a domain I protein.

Assay [2] concerns the target T3, β2a protein (Oryctolagus cuniculus, UniProt P54288, P148R).
T3 construct: Equilibrium isotherm titrations were performed with full-length β2a and linkerless core β2a; 8xHis tag followed by a TEV protease site (N, cleaved yes); made in house; host or cells: E. coli BL-21 Tuner with RIL Codon Plus plasmid, modified pET21 vector
The conditions noted are these: single amino acid change Y to S; cited from earlier work.

For assay [3], the target named is T4, β2a protein (Oryctolagus cuniculus, UniProt P54288).
T4 construct: Equilibrium isotherm titrations were performed with full-length β2a and linkerless core β2a; 8xHis tag followed by a TEV protease site (N, cleaved yes); made in house; host or cells: E. coli BL-21 Tuner with RIL Codon Plus plasmid, modified pET21 vector
Put plainly: AID peptide binding assay (fluorescence polarization): AID peptide variants against β2a. Further details: species or system rabbit. The conditions noted are these: up to 350 nM β2a protein. The text has this: Fluorescence polarization was used to determine the equilibrium dissociation constant (KD) for the interaction between a fluorescein-labeled AID peptide, purified and various VDCC β constructs. The synthetic peptide was purified by HPLC reverse chromatography using a C18 column (Vydac) with a shallow acetonitrile gradient 20-80% (both solvents were supplemented with 0.05% trifluoracetic acid). Its sequence is derived from the AID motif of: the CaV1.1 I-II linker and is as follows: fluorescein-[…]-COOH (SEQ ID NO: 14). A mutant peptide, fluorescein-[…]-COOH (SEQ ID NO: 15) was prepared, in addition. Increasing concentrations of protein were incubated with 0.5 nM labeled peptide for 10 min in the dark at room temperature. Polarization measurements were taken with an ISS K2 fluorescence spectrophotometer at excitation and emission wavelengths of 492 and 520 nm, respectively, at 20° C., maintained by a temperature-controlled water bath. Polarization measurements were made with integration times on the order of 20 seconds, achieving a standard deviation of 5 percent of signal. Binding isotherms for the various samples were measured three independent times. Binding data were analyzed in SigmaPlot (SPSS) by nonlinear regression used to fit a binding function as defined by the following equation: […]
On the technique in general: In fluorescence polarisation assays a small probe gives low polarisation when free and higher when bound to something large.

fluorescein = fluorescein label

T2 sequence (Q13936 whole entry, species assumed): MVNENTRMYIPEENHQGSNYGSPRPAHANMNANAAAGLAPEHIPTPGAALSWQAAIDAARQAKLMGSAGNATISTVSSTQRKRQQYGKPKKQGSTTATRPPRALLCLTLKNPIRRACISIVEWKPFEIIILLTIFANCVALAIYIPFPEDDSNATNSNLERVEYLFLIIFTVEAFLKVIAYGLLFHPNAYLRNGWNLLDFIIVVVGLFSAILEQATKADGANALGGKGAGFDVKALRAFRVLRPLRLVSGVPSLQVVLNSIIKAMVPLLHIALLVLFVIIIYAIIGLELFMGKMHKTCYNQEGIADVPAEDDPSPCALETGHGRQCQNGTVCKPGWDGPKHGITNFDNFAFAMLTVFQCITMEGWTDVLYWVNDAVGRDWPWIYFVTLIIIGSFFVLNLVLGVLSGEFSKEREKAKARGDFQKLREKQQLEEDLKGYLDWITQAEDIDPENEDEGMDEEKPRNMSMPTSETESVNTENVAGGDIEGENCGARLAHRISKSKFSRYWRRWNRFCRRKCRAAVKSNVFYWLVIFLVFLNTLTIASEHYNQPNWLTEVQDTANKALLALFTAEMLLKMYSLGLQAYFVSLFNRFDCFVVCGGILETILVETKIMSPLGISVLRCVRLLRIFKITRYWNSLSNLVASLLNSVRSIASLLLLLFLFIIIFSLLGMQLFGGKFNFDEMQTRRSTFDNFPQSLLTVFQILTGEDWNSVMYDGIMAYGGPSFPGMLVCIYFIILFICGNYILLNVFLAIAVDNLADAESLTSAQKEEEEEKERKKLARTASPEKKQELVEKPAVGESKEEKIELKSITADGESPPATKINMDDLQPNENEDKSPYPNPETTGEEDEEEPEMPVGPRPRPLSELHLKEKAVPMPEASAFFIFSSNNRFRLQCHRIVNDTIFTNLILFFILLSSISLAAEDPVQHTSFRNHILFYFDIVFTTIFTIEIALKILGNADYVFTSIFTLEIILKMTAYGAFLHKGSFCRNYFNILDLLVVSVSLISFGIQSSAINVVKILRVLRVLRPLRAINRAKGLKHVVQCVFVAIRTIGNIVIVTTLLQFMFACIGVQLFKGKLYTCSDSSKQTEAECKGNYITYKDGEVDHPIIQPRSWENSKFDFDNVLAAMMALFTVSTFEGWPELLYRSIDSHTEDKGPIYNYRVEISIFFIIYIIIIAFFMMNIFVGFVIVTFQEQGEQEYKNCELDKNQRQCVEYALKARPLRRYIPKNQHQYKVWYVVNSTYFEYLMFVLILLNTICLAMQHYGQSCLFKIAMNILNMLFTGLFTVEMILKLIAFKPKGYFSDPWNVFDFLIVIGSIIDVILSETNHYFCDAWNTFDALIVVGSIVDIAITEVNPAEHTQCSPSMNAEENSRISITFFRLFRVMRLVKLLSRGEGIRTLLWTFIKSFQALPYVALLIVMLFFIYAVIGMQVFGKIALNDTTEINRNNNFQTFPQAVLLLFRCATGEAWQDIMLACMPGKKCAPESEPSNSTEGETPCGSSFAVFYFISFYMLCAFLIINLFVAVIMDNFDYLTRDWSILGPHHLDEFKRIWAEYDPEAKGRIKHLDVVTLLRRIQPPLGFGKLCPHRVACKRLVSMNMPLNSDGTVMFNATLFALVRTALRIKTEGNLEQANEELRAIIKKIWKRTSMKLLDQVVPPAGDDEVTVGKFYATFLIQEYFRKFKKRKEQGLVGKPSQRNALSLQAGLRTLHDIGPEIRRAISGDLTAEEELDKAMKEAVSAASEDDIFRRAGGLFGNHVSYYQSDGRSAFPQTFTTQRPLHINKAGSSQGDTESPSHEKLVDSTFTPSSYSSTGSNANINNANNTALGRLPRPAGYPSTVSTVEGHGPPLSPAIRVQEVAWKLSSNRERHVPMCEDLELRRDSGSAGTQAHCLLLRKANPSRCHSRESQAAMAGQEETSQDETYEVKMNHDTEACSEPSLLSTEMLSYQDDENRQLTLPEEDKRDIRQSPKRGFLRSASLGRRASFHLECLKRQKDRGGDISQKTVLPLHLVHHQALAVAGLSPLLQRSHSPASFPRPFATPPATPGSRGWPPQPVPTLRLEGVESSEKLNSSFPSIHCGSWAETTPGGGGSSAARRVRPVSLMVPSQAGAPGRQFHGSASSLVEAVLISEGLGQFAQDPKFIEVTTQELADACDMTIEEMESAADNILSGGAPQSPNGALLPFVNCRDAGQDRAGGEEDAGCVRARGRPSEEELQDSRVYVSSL
T1 sequence (P07293 with tags, fused parts or gaps M367N): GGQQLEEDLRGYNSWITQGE
T4 sequence (P54288 2-606 isoform P54288-2 P122R): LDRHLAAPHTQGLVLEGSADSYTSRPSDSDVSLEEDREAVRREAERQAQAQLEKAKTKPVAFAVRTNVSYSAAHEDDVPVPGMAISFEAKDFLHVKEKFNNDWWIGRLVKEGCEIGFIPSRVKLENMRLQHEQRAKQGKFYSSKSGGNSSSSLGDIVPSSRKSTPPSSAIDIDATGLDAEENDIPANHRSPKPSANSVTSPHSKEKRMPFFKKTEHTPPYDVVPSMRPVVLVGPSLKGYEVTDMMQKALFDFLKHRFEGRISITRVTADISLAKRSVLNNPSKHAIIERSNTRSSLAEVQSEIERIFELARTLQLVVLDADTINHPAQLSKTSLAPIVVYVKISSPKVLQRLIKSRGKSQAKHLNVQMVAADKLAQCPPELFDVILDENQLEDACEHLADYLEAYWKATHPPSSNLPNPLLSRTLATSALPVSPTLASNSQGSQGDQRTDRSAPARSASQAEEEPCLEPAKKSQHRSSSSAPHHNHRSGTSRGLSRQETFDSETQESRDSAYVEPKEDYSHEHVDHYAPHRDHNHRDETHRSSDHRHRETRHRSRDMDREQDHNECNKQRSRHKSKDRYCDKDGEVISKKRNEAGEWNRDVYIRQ
T3 sequence (P54288 2-606 isoform P54288-2 P122R): as above

By koff is commonly meant a measure of how fast the partners let go of each other. For “AID: α1 interaction domain sequence of the α1 I-II linker that binds β”, the koff with β is around 0.005 s⁻¹.

For “β2a domain I: recombinant β2a domain I, residues 25 to 146”, the “relative binding to labeled AID peptide” value in assay [1] is reported as “negligible”. Besides, in the assay with Cav1.2 (α1C), the Current amplitude, I at 20 mV was -0.16 ± 0.01 µA; the Current amplitude, I at 30 mV is -0.18 ± 0.02 µA; the “Steady-state activation, V1/2 (membrane potential for half-maximal activation)” value turned out to be 24.00 ± 3.01 mV; the “Steady-state activation, k (slope factor)” value is on record as 12.18 ± 0.49 mV.

“fluorescein-GGQQLEEDLRGSNSWITQGE-COOH (SEQ ID NO: 15) (fluorescein-GGQQLEEDLRGSNSWITQGE-OH; listed as Oryctolagus cuniculus) [mutant AID peptide, mutant AID peptide with single amino acid change Y to S]”: the “binding capability relative to WT” value in the assay with β2a protein [2] is “less than five percent binding capability of WT”. Moreover, in the assay with β2a protein [3], the “binding of AID peptide to β2a” value is recorded as “No binding”.

On to “domain II: β2a domain II released from NusA-domain II fusion by incubation with TEV protease”, for which, in assay [1], the “relative binding to labeled AID peptide” value is “significant binding affinity for the AID”.

In the case of “Core β2 Pro.: injected recombinant β2a core protein”, in the assay with Cav1.2 (α1C), the “current amplitude increase and change of steady-state activation” value is recorded as “corresponds well to full-length protein activity”; the “Current amplitude, I at 20 mV” value was −0.87 ± 0.09 A; the Current amplitude, I at 30 mV was -0.7 ± 0.07 µA; the “Steady-state activation, V1/2 (membrane potential for half-maximal activation)” value is 6.84 ± 0.83 mV. Further, the “Steady-state activation, k (slope factor)” value with Cav1.2 (α1C) was found to be 8.43 ± 0.23 mV.

For “d1 + d2 β2 Pro.: domain I + domain II prepared by proteolysis of full length protein and subsequent purification”, in the assay with Cav1.2 (α1C), the “current amplitude increase and change of steady-state activation” value is “significant changes in the current amplitude and activation shift”; the Current amplitude, I at 20 mV is -0.44 ± 0.04 µA; the Current amplitude, I at 30 mV is -0.34 ± 0.03 µA; the “Steady-state activation, V1/2 (membrane potential for half-maximal activation)” value is on record as 3.24 ± 0.93 mV. Moreover, the “Steady-state activation, k (slope factor)” value in the assay with Cav1.2 (α1C) was found to be 9.49 ± 0.92 mV.

Regarding Core β3 Pro.: β3 core protein, in the assay with Cav1.2 (α1C), the Current amplitude, I at 20 mV was -0.45 ± 0.04 µA; the Current amplitude, I at 30 mV is -0.41 ± 0.03 µA; the “Steady-state activation, V1/2 (membrane potential for half-maximal activation)” value is on record as 10.65 ± 4.46 mV; the “Steady-state activation, k (slope factor)” value came to 10.06 ± 1.15 mV.

For the substance “Full β2 Pro.: injected recombinant full-length β2a protein, later found to contain mutation P122R”, in the assay with Cav1.2 (α1C), the Current amplitude, I at 20 mV was -0.71 ± 0.09 µA; the Current amplitude, I at 30 mV is -0.49 ± 0.06 µA; the “Steady-state activation, V1/2 (membrane potential for half-maximal activation)” value is given as 3.68 ± 0.33 mV; the “Steady-state activation, k (slope factor)” value was found to be 8.48 ± 0.53 mV.

For “Full β3 Pro.: recombinant full-length rat VDCC β3 subunit protein”, in the assay with Cav1.2 (α1C), the Current amplitude, I at 20 mV was -0.47 ± 0.04 µA; the Current amplitude, I at 30 mV was -0.44 ± 0.03 µA; the “Steady-state activation, V1/2 (membrane potential for half-maximal activation)” value was 10.03 ± 3.36 mV; the “Steady-state activation, k (slope factor)” value was found to be 10.56 ± 0.42 mV.
